According to paper PMC8863788, “A multiparametric fluorescence assay for screening aptamer–protein interactions based on microbeads”:

Experiments:
Assay in all cases: fluorescent microbead binding (VideoScan)
Thrombin = Thrombin (UniProt P00734;P00734 328-363;364-622)
PfLDH = PfLDH (UniProt Q76NM3 1-316); conditions: protein: recombinant; chain copies: 4
Interferon gamma (IFNγ) = Interferon gamma (IFNγ) (UniProt P01579 24-161); conditions: protein: commercial; chain copies: 2
Chain of Interferon gamma (IFNγ) (P01579 24-161): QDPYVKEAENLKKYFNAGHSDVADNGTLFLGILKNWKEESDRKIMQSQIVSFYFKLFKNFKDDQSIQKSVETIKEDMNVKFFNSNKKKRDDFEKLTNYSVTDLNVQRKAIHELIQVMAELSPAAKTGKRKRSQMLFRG

CTGGGCGGTAGAACCATAGTGACCCAGCCGTCTAC (structured_DNA) [PfLDH-apta]
binding signal (Thrombin): ~8 fold signal increase
binding signal (PfLDH): ~2 fold signal vs no divalent cations
binding signal (Interferon gamma (IFNγ)): ~6 fold signal increase
